Measured values taken from the supplement of paper PMC7125110.
± gives the standard error. This sample holds only a part of the variants without activity.

B1: glmS ribozyme (parent)
chain: AUAAAAGCGCCAGAACUACAGAAAUGUAGUUGACGAGGAGGAGGUUUAUCGAAUUUUCGGCGGAUGCCUCCAAA

Key:
Conditions in all cases: with glucosamine-6-phosphate
glucosamine-6-phosphate [1] = variants of: B1; test: self-cleavage kobs at 40 uM GlcN6P; higher = faster cleavage; RNA array
Outline: (§1)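 Barcoded ribozyme variants, transcribed in situ by E. coli RNA polymerase on sequenced MiSeq chips, were followed via a hybridised Cy3 probe at 37 °C. Glucosamine-6-phosphate ranged from 40 μM to 10 mM in HEPES/KCl/Mg(OAc)2 buffer. kobs came from decay fits to per-tile medians, and kcat and KM from weighted Michaelis–Menten fits.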

glucosamine-6-phosphate [2] = variants of: B1; test: self-cleavage kobs at 160 uM GlcN6P; higher = faster cleavage; RNA array
Outline: as §1

glucosamine-6-phosphate [3] = variants of: B1; test: self-cleavage kobs at 640 uM GlcN6P; higher = faster cleavage; RNA array
Outline: as §1

glucosamine-6-phosphate [4] = variants of: B1; test: self-cleavage kobs at 2500 uM GlcN6P; higher = faster cleavage; RNA array
Outline: as §1

glucosamine-6-phosphate [5] = variants of: B1; test: self-cleavage kobs at 10000 uM GlcN6P; higher = faster cleavage; RNA array
Outline: as §1

| Variant | self-cleavage kobs at 40 uM GlcN6P (glucosamine-6-phosphate [1]) [s⁻¹] | self-cleavage kobs at 160 uM GlcN6P (glucosamine-6-phosphate [2]) [s⁻¹] | self-cleavage kobs at 640 uM GlcN6P (glucosamine-6-phosphate [3]) [s⁻¹] | self-cleavage kobs at 2500 uM GlcN6P (glucosamine-6-phosphate [4]) [s⁻¹] | self-cleavage kobs at 10000 uM GlcN6P (glucosamine-6-phosphate [5]) [s⁻¹] |
| --- | --- | --- | --- | --- | --- |
| A48C G59U | < 1e-05 | < 1e-05 | < 1e-05 | < 1e-05 | < 1e-05 |
| A48C G59A | < 1e-05 | < 1e-05 | < 1e-05 | < 1e-05 | < 1e-05 |
| U54C C70A | 3e-05 ± 1.2e-05 | 5.86e-05 ± 2.8e-05 | 0.000124 ± 2.4e-05 | 0.000512 ± 0.00011 | 0.000206 ± 2.9e-05 |
| U56C C61U C70A C71U | < 1e-05 |  |  | < 1e-05 |  |
| U54C U55G | 0.00056 ± 0.00017 | 0.000955 ± 0.00031 | 0.00482 ± 0.0012 | 0.00712 ± 0.0021 | 0.0366 ± 0.018 |
| A48G G51C | < 1e-05 | < 1e-05 |  | < 1e-05 | < 1e-05 |
| U49A A52C | < 1e-05 | < 1e-05 | < 1e-05 |  | < 1e-05 |
| U49G U54G | 3.67e-05 ± 1.4e-05 |  |  |  | 0.000838 ± 0.00014 |
| A52U G60U C67U | < 1e-05 |  |  |  | < 1e-05 |
| A48C G51U C67U | < 1e-05 |  |  |  | < 1e-05 |
| U49G C58G | < 1e-05 |  |  |  |  |
| A52U G59U | < 1e-05 | < 1e-05 | < 1e-05 |  | < 1e-05 |
| C58G A64G C70G | < 1e-05 |  |  |  |  |
| A48U U55G G62C | < 1e-05 |  | < 1e-05 |  | < 1e-05 |
| G59C C61U G66U | < 1e-05 |  |  |  | < 1e-05 |
| A48G A53G C68G | 6.75e-05 ± 2.2e-05 |  |  |  | 5.82e-05 ± 1.7e-05 |
| U49C C61G | < 1e-05 |  |  |  | < 1e-05 |
| G51C A64G C68A | < 1e-05 |  |  |  | < 1e-05 |
| G51A U55G | < 1e-05 | < 1e-05 | < 1e-05 |  |  |
| A48C G62A | < 1e-05 | < 1e-05 | < 1e-05 | < 1e-05 | < 1e-05 |
| U56C G63U | < 1e-05 | < 1e-05 |  |  | < 1e-05 |
| C50A G63U | < 1e-05 | < 1e-05 | < 1e-05 |  | < 1e-05 |

| Variant | self-cleavage kobs at 40 uM GlcN6P (glucosamine-6-phosphate [1]) [s⁻¹] | self-cleavage kobs at 160 uM GlcN6P (glucosamine-6-phosphate [2]) [s⁻¹] | self-cleavage kobs at 640 uM GlcN6P (glucosamine-6-phosphate [3]) [s⁻¹] | self-cleavage kobs at 2500 uM GlcN6P (glucosamine-6-phosphate [4]) [s⁻¹] | self-cleavage kobs at 10000 uM GlcN6P (glucosamine-6-phosphate [5]) [s⁻¹] |
| --- | --- | --- | --- | --- | --- |
| A48U C61A | < 1e-05 | < 1e-05 |  |  | < 1e-05 |
| U56G U69C | 0.000126 ± 1.8e-05 | 0.000192 ± 6.9e-05 | 0.000627 ± 0.00011 | 0.00118 ± 0.00041 | 0.00475 ± 0.0011 |
| U54G C67G | 0.000338 ± 4.2e-05 | 0.000142 ± 4.5e-05 | 0.00079 ± 0.00024 | 0.000568 ± 0.00012 | 0.00398 ± 0.0006 |
| U54A U55C | 0.00104 ± 0.00016 | 0.00215 ± 0.00046 | 0.00479 ± 0.001 | 0.0235 ± 0.0076 | 0.0628 ± 0.022 |
| U54A U55G | 0.00074 ± 7.7e-05 | 0.00127 ± 0.00022 | 0.00651 ± 0.0008 | 0.0121 ± 0.0021 | 0.0328 ± 0.011 |
| U57G G60U | < 1e-05 | < 1e-05 | < 1e-05 | < 1e-05 |  |
| U56G G62A G63A | < 1e-05 |  |  |  |  |
| A48G U65A C68A | 0.000357 ± 0.00011 |  |  |  | 0.000113 ± 3.1e-05 |
| G59A G60U | < 1e-05 |  | < 1e-05 | < 1e-05 | < 1e-05 |
| G51A C58A | < 1e-05 |  | < 1e-05 |  | < 1e-05 |
| U54C U55C U65A | 3.24e-05 ± 1.6e-05 |  |  |  |  |
| A48U A64C | < 1e-05 | < 1e-05 | < 1e-05 |  |  |
| C50G A53U G66A C67A | 0.000122 ± 4.6e-05 |  |  |  | 0.000135 ± 5.1e-05 |
| G59C A64U | < 1e-05 | < 1e-05 | < 1e-05 |  | < 1e-05 |
| G51A U55A C58G | < 1e-05 |  |  |  | < 1e-05 |
| U54A C61A G66U | < 1e-05 |  |  |  |  |
| U49C C70A | < 1e-05 |  |  |  |  |
| G51U G59A | < 1e-05 |  |  |  | < 1e-05 |
| A52G U56C | < 1e-05 |  | 4.15e-05 ± 1.2e-05 | 7.09e-05 ± 1.3e-05 | 0.000259 ± 4.9e-05 |
| A52G U57A G66U | < 1e-05 |  |  |  | 3.15e-05 ± 1.6e-05 |
| U49G G59C | < 1e-05 | < 1e-05 |  |  | < 1e-05 |
| C50U G62U | < 1e-05 |  |  |  | < 1e-05 |
